Laboratory results taken from article PMC7469494 (Autophagy, 2019).

What was measured:
full-length Vac8 = biological target: T1, full-length Vac8 (S. cerevisiae, UniProt P39968 1-578); assay: ITC
T1 sequence (looked up): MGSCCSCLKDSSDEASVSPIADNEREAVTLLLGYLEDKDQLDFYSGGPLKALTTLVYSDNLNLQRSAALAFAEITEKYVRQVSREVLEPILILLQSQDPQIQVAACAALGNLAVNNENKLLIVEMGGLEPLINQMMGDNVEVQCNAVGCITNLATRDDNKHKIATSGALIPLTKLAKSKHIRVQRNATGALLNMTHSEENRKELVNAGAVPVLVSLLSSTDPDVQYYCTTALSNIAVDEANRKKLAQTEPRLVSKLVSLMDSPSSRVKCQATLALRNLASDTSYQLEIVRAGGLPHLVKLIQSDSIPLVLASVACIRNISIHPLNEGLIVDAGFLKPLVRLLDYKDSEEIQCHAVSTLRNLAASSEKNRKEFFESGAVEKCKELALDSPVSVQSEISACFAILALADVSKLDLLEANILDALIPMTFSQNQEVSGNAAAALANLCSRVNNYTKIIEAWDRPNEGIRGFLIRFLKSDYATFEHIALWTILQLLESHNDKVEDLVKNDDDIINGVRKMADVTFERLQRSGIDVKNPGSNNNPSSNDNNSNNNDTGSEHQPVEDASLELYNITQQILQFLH

[1] = biological target: T2, Vac8[Δ19–33] (full-length Vac8 lacking the H1 helix, residues 19–33) (S. cerevisiae, UniProt P39968 1-578, Δ19–33); assay: ITC
T2 sequence (looked up): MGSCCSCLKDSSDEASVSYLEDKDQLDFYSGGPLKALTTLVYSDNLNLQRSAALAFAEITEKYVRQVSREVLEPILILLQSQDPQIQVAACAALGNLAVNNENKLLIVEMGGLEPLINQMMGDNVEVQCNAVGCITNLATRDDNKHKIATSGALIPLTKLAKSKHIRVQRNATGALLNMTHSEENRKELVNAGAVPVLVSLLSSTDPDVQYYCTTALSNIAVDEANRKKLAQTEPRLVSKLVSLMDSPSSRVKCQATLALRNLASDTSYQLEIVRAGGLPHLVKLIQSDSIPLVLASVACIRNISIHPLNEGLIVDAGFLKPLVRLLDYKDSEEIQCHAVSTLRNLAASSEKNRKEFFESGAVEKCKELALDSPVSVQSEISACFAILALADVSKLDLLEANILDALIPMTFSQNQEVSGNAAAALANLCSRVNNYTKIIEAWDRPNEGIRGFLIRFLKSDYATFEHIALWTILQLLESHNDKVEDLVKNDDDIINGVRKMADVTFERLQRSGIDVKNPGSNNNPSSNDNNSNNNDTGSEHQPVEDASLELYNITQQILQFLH

[2] = biological target: T3, tVac8 (Vac8 construct comprising residues 10–515) (S. cerevisiae, UniProt P39968 10-515); assay: AUC
T3 sequence (looked up): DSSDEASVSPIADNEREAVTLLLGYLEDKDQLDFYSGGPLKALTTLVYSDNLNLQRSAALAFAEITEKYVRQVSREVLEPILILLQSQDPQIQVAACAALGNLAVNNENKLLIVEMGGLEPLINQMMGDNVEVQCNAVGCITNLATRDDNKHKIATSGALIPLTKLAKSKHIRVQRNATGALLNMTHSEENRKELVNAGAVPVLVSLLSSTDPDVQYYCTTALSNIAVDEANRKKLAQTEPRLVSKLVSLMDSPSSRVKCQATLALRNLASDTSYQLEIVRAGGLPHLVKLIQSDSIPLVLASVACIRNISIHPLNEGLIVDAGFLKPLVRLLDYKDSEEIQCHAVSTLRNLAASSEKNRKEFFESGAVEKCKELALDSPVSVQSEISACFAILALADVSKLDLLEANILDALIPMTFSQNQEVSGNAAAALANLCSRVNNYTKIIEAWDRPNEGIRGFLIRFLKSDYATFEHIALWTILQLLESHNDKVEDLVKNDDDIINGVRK

Vac8[40–515]^N60R,N62R = biological target: T4, Vac8[40–515]^N60R,N62R (S. cerevisiae, UniProt P39968 40-515, N60R | N62R); assay: SEC
T4 sequence (looked up): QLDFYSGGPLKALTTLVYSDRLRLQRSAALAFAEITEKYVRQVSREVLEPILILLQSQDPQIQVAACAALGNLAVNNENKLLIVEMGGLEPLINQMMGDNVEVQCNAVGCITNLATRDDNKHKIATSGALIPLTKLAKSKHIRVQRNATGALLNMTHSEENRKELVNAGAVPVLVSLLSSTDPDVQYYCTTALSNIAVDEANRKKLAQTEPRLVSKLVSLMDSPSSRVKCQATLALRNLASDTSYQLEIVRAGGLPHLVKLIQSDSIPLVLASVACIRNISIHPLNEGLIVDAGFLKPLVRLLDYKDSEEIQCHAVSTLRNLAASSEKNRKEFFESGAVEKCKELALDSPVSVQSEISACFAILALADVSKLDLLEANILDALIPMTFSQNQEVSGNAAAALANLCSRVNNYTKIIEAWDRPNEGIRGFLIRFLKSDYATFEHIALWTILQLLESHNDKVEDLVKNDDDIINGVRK

B1: tAtg13 (Atg13 construct comprising residues 567–695) (domain or fragment, S. cerevisiae, UniProt Q06628 567-695, looked up)
chain: GGNSSTSALNSRRNSLDKSSNKQGMSGLPPIFGGESTSYHHDNKIQKYNQLGVEEDDDDENDRLLNQMGNSATKFKSSISPRSIDSISSSFIKSRIPIRQPYHYSQPTTAPFQAQAKFHKPANKLIDNG
- binding result (full-length Vac8): binds
- Kd [1]: 1460 nM
- binding result [2]: binds
- binding result (Vac8[40–515]^N60R,N62R): binds
